Test results taken from patent US20250236669A1 (BIRD ROCK BIO, published 2025).
Substitutions are numbered along the chain they refer to.

What was measured:
[1] = target: T1, native full length human CB1 receptor (TRex-CHO A156 cells) (human, UniProt P21554 1-472); experiment: cell-based or functional assay
[2] = target: T1, native full length human CB1 receptor …; experiment: cell-based or functional assay; remark: listed apart in the source
[3] = target: T1, native full length human CB1 receptor …; experiment: cell-based or functional assay; remark: listed apart in the source
[4] = target: T2, mouse CB1 (on TRex-CHO cells) (mouse, UniProt P47746 1-473); experiment: flow cytometry on cells expressing mouse CB1
T2 construct: whole, on cells; also called TRexCHO Mouse CB1
T2 sequence (P47746 whole entry): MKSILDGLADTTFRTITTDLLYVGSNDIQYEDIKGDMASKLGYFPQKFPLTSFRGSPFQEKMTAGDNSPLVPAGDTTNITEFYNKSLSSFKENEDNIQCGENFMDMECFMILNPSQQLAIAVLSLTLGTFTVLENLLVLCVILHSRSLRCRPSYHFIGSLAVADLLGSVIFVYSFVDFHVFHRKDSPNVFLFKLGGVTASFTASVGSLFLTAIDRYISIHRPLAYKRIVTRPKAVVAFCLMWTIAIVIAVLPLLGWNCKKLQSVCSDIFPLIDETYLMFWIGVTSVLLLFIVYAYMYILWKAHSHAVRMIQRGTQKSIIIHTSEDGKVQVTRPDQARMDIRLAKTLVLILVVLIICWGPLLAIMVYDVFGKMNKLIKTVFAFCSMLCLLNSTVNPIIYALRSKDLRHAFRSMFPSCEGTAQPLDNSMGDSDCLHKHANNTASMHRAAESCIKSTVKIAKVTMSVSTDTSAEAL

[5] = target: T3, human CB2 (on TRex-CHO cells) (human, UniProt P34972 1-360); experiment: flow cytometry, mean fluorescence intensity against antibody concentration, TRex-CHO human CB2 cells
T3 construct: whole, on cells; also called TRexCHO Human CB2; CB2 expression cell line
T3 sequence (P34972 whole entry): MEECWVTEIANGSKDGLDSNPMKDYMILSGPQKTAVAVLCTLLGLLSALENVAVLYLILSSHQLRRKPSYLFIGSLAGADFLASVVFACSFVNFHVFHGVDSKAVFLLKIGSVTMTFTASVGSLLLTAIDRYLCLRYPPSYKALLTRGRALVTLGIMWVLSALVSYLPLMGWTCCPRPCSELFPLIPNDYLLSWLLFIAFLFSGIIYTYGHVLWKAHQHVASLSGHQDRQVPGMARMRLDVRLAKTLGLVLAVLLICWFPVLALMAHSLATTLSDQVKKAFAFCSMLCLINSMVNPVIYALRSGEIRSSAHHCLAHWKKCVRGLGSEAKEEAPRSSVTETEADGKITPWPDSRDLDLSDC

[6] = target: T2, mouse CB1 (on TRex-CHO cells); experiment: flow cytometry, mean fluorescence intensity against antibody concentration, TRex-CHO mouse CB1 cells
[7] = target: T1, native full length human CB1 receptor …; experiment: cell-based or functional assay; remark: listed apart in the source
[8] = target: T1, native full length human CB1 receptor …; experiment: cell-based or functional assay; remark: listed apart in the source
[9] = target: T1, native full length human CB1 receptor …; experiment: cell-based or functional assay; remark: listed apart in the source
[10] = target: T1, native full length human CB1 receptor …; experiment: cell-based or functional assay; remark: listed apart in the source
[11] = target: T1, native full length human CB1 receptor …; experiment: cell-based or functional assay; remark: listed apart in the source

T1 sequence (P21554 whole entry): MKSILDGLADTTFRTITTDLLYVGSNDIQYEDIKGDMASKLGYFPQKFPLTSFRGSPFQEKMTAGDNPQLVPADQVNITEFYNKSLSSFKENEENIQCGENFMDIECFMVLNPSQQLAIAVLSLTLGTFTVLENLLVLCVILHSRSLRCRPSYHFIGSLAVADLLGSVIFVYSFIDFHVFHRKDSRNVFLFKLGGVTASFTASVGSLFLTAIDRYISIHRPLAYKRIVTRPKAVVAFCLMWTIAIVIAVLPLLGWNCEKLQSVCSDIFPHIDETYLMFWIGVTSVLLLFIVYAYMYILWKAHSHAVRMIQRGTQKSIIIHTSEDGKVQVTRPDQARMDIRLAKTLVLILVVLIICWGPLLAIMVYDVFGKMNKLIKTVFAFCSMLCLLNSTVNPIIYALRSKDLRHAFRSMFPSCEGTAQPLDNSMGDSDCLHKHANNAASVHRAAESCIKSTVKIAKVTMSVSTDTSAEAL

B1: PA2LR3-P6G7 (chimeric) (antibody, human IgG1, kappa, V domains shown)
VH: EVQLQQSGAELVRPGSSVKISCKASGFAFSNYWMNWVKQRPGQGLEWIGQIYPGDGDTNFNGKFKGRAILTADISSNTAYMQLSSLTSEDSAVYFCARSHGNYFPYWGQGTLVTVSA
VL: DIVLTQSPAIMSASLGERVTMTCTASSSVSSSYLHWYQQKPGSSPKLWIYSTSNLASGVPARFSGSGSGTSYSLTISSMEAEDAATYYCHQHHRSPPTFGAGTKLELKR
- EC50, cAMP agonist functional assay, CB1 TRex CHO cells [1]: > 300 nM

B2: PA2LR3-P4B1 (chimeric) (antibody, human IgG1, kappa, V domains shown)
VH: B1 VH
VL: B1 VL with D1Q, H92Y, P97L
- EC50, cAMP agonist functional assay, CB1 TRex CHO cells [1]: > 300 nM

B3: PA2LR3-P2D3 (chimeric) (antibody, human IgG1, kappa, V domains shown)
VH: B1 VH with F27Y, N31Y, F60Y, R67K, I69T, I74K, N77S, N102S, P105A
VL: DIELAQSPASLAVSLGQRATISCRASESVDSYGNSFMHWYQQKPGQPPKLLIYLASNLESGVPARFSGSGSRADFTLTIDPVEADDAATYYCLQYASSPPTFGAGTKLEIKR
- EC50, cAMP agonist functional assay, CB1 TRex CHO cells [1]: > 300 nM

B4: PA2LR3-P6B12 (chimeric) (antibody, human IgG1, kappa, V domains shown)
VH: B1 VH with F27Y, N31Y, F60Y, R67K, I69T, I74K, N77S, P105A
VL: B1 VL with D1Q, H92Y, P97L, T98A
- EC50, cAMP assay in the presence of CP55940, CB1 TRex CHO cells [1]: ~1000 nM

B5: P1C4-h2 Fab (Fab, V domains shown)
VH: QVQLVQSGAEVKKPGSSVKVSCKASGYEFSYYWMNWVRQAPGQGLEWMGQIYPGDGETKYAQKFQGRVTITADKSTSTAYMELSSLRSEDTAVYYCARSHGNYLPYWGQGTLVTVSS
VL: EIVLTQSPATLSLSPGERATLSCRASQSVSSSYLHWYQQKPGQAPRLLIYSTSNLASGIPARFSGSGSGTDFTLTISRLEPEDFAVYYCHQYHRSPPTFGQGTKVEIK
- IC50 cAMP assay (Fab), CB1 TRex CHO cells [2]: 52 nM
- IC50 (read off the curve) [3]: ~30 nM

B6: P1C4-h4 Fab (Fab, V domains shown)
VH: B5 VH with A61N, Q62G
VL: B5 VL
- IC50 cAMP assay (Fab), CB1 TRex CHO cells [2]: 43 nM
- IC50 (read off the curve) [3]: ~40 nM

B7: 36E12B6C2 IgG (antibody, V domains shown)
VH: QVQLQQSGAELVRPGSSVKISCKASGYEFSYYWMNWVKQRPGQGLQWIGQIYPGDGDTNYNGKFKGKATLTADKSSSTAYMHLTSLTSEDSAVYFCARSGGNPFAFWGQGTLVTVSA
VL: DIQMTQTSSSLSASLGDRVTFSCRASQDISNYLNWYQQKPDGTVKLLIYYTSRLHSGVTSRFRGSGSGTDYSLTISNLEQEDVATYFCQQGHTLPWSFGGGTKLEIKR
notes: Hybridoma-derived
- binding result [4]: no binding

B8: P1C4-h2-IgG1 (antibody)
heavy: not shown
light: EIVLTQSPATLSLSPGERATLSCRASQSVSSSYLHWYQQKPGQAPRLLIYSTSNLASGIPARFSGSGSGTDFTLTISRLEPEDFAVYYCHQYHRSPPTFGQGTKVEIKRTVAAPSVFIFPPSDEQLKSGTASVVCLLNNFYPREAKVQWKVDNALQSGNSQESVTEQDSKDSTYSLSSTLTLSKADYEKHKVYACEVTHQGLSSPVTKSFNRGEC
- binding result [5]: no binding (tested: about 300 nM)
- binding result [6]: no binding (tested: about 300 nM)

B9: P1C4-h4-IgG1 (antibody)
heavy: not shown
light: B8 light
notes: also called P1C4-H4 (YENG); P1C4-H4 (YENG)-IgG
- binding result [5]: no binding (tested: about 300 nM)
- binding result [6]: no binding (tested: about 300 nM)

B10: P1C4-H4-IgG4 (antibody)
heavy: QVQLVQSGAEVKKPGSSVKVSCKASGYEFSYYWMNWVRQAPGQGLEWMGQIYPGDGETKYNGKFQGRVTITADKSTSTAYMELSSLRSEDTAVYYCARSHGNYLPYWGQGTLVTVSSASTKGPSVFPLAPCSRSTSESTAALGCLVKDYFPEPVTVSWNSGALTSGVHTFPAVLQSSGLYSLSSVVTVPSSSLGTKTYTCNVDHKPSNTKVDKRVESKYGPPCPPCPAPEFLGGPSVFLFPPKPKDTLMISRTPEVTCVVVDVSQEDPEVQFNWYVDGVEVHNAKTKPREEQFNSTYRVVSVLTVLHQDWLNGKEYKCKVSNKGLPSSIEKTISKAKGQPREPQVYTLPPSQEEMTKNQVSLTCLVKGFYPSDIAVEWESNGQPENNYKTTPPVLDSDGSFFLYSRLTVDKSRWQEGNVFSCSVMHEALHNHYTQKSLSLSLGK
light: B8 light
- cAMP IC50, antagonist assay; CHO-S batch [n] [7]: 51 nM
- cAMP IC50, antagonist assay; Mean of Batch 1 [n] [7]: 54 nM
- cAMP IC50, antagonist assay; Mean of Batch 2 [n] [7]: 54 nM
- IC50, cAMP activity; after dialysis to pH 3 and 48 h at 40 C [8]: 139 nM
- IC50, cAMP activity; after dialysis to pH 9 and 48 h at 40 C [8]: 64 nM
- IC50, potency (cAMP); at 4 C for 33 days [9]: 62 nM
- IC50, potency (cAMP); at 40 C for 33 days [9]: 71 nM
- IC50, cAMP antagonist assay; after 5 freeze/thaw cycles [10]: 32 nM

B11: P1C4-h0-IgG1 (antibody, V domains shown)
VH: B5 VH with Y27G, E28T
VL: EIVLTQSPATLSLSPGERATLSCRASQSVSSSYLHWYQQKPGQAPRLLIYSTSNLASGIPARFSGSGSGTDFTLTISRLEPEDFAVYYCHQYHRSPPTFGQGTKVEIKR
- IC50, cAMP functional assay, native human CB1 TRex-CHO cells [11]: 146 nM
- cAMP IC50, antagonist assay; Mean of Batch 1 [n] [7]: 158 nM
- cAMP IC50, antagonist assay; Mean of Batch 2 [n] [7]: 343 nM
- binding result [5]: no binding (tested: about 300 nM)
- binding result [6]: no binding (tested: about 300 nM)
